Columns and labels:
[1] = target: T1, thrombin, N-terminally 2PCA-labeled (Cy5, biotin) (UniProt P00734;P00734 328-363;364-622); experiment: single-molecule FRET (koff/kon); koff 0.1 +/- 0.1 s-1; kon 0.2 +/- 0.1 e8 M-1 s-1; main text gives error 0.7; smFRET: 1x PBS with 2.5 mM PCA, 0.155 U/ul PCD, 1 mM Trolox, 5 nM Cy3-aptamer, 23 +/- 1 C, pH not stated; QCM: PBS, flow 45 +/- 3 ul/min, thrombin 0.06-16.5 nM
human alpha-thrombin [2] = target: T2, human alpha-thrombin (Homo sapiens, UniProt P00734;P00734 328-363;364-622); experiment: QCM; about twice the sensitivity of RE31; response at 300 pM; release 3.1 +/- 1.05% per 5 min at 16.5 nM; smFRET: 1x PBS with 2.5 mM PCA, 0.155 U/ul PCD, 1 mM Trolox, 5 nM Cy3-aptamer, 23 +/- 1 C, pH not stated; QCM: PBS, flow 45 +/- 3 ul/min, thrombin 0.06-16.5 nM
[3] = target: T1, thrombin, N-terminally 2PCA-labeled …; experiment: single-molecule FRET (koff/kon); koff 0.3 +/- 0.1 s-1; kon 1.1 +/- 0.1 e8 M-1 s-1; smFRET: 1x PBS with 2.5 mM PCA, 0.155 U/ul PCD, 1 mM Trolox, 5 nM Cy3-aptamer, 23 +/- 1 C, pH not stated; QCM: PBS, flow 45 +/- 3 ul/min, thrombin 0.06-16.5 nM
human alpha-thrombin [4] = target: T2, human alpha-thrombin; experiment: QCM; linear 1.65-16.5 nM; no significant change below; release 6.3 +/- 0.6% per 5 min at 16.5 nM; smFRET: 1x PBS with 2.5 mM PCA, 0.155 U/ul PCD, 1 mM Trolox, 5 nM Cy3-aptamer, 23 +/- 1 C, pH not stated; QCM: PBS, flow 45 +/- 3 ul/min, thrombin 0.06-16.5 nM
[5] = target: T1, thrombin, N-terminally 2PCA-labeled …; experiment: single-molecule FRET (koff/kon); koff 0.7 +/- 0.1 s-1; kon 0.7 +/- 0.1 e8 M-1 s-1; main text gives error 0.8; smFRET: 1x PBS with 2.5 mM PCA, 0.155 U/ul PCD, 1 mM Trolox, 5 nM Cy3-aptamer, 23 +/- 1 C, pH not stated; QCM: PBS, flow 45 +/- 3 ul/min, thrombin 0.06-16.5 nM

Binder TTTTTTTCGCCTAGGTTGGGTAGGGTGGTGGCG (structured_DNA) [NU172 single molecule exp.] has a Kd [1] of 3.3 nM.

TTTTTTTCGCCTAGGTTGGGTAGGGTGGTGGCG (structured_DNA, 5' amino C6) [NU172 QCM exp.]: binds (human alpha-thrombin [2]).

In the case of TTTTTTTGTGACGTAGGTTGGTGTGGTTGGGGCGTCAC (structured_DNA) [RE31 single molecule exp.], the Kd [3] is reported as 2.9 nM.

TTTTTTTGTGACGTAGGTTGGTGTGGTTGGGGCGTCAC (structured_DNA, 5' amino C6) [RE31 QCM exp.]: binds (human alpha-thrombin [4]).

TTTTTTTGGTTGGTGTGGTTGG (structured_DNA) [HD1 single molecule exp.] was tested, and the Kd [5] was 9.2 nM.
